From PMC13544220, “Glycemic and bodyweight effects of GIPR coding variation reflect differences in surface expression and intrinsic functional impairment” (Science Advances, 2026)

Columns and labels:
Assay type in all cases: cell-based, human
[1] = tested on: wild-type and variant SNAP-GIPR; assay: Surface SNAP-GIPR expression (SNAP-tag labelling) in AD293 cells; details: for AD293 Surface: Fig S3E, mean; for Surface SNAP-GIPR expression: sheet Fig 1C;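 on all read-outs here: scaled to the experimental average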
Outline: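 Surface GIPR is quantified from wide-field images after labelling intact transfected cells with a membrane-impermeant SNAP probe at 500 nM for 10 min at room temperature. Specific signal, corrected for nontransfected cells, is normalized to the experiment-wide average or to wild-type.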

[2] = tested on: wild-type and variant SNAP-GIPR; assay: Surface SNAP-GIPR expression (SNAP-tag labelling) in INS-1 cells; details: Fig 4G; Mean
Experimental: Twenty-four hours before the experiment, AD293 or INS-1 cells were reverse transfected with GIPR variant or wild-type plasmids using Lipofectamine 2000 in 96-well, clear-bottom, black microplates precoated with poly-D-lysine. All variants were tested in parallel on each occasion to control for transfection efficiency differences between experiments. Cells were then labeled using the cell-impermeant probe SNAP-Surface Alexa Fluor 647 (500 nM, New England Biolabs, USA) for 10 min at room temperature to label only surface GIPR. […] Several fields of view (FOVs) were acquired within each well using a 20X, 0.75–numerical aperture (NA) air objective. Surface GIPR fluorescence was quantified after flat-field correction using BaSiC ([72]) and segmenting using Phantast ([73]), which generates a mask based on the phase contrast images to demarcate cell versus noncell. Wide-field imaging of the surface-specific labeling achieved by SNAP-Surface probes means that surface expression can be established from whole-cell fluorescence, after subtracting nonspecific fluorescence from a separate well containing nontransfected cells processed in parallel from the same experiment. Data were normalized by dividing by the average specific signal across each experiment, or by the wild-type value, as indicated in the figure legends.

[3] = tested on: wild-type and variant SNAP-GIPR; assay: Single-concentration GIP cAMP response by HTRF in AD293 cells; details: Fig S3F, HTRF, mean;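 further: ratio to experiment-wide average response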
Experimental: (§1) All variants were tested in parallel on each occasion to control for transfection efficiency differences between experiments.

[4] = tested on: wild-type and variant SNAP-GIPR; assay: Single-concentration GIP cAMP response by HTRF in INS-1 cells; details: Fig S3E, mean
Experimental: as §1

[5] = tested on: wild-type and variant SNAP-GIPR; assay: cADDis cAMP imaging in AD293 cells, ensemble, expression-matched and per decile; details: Fig S3F, cADDis, mean
Experimental: AD293 cells were reverse transfected with the GIPR variant or wild-type plasmids using Lipofectamine 2000 and cotransduced with the cADDis Green Up BacMam (10 μl per well, Montana Molecular, USA), in 96-well, poly-D-lysine–coated microplates. All variants were tested in parallel on each occasion to control for transfection efficiency differences between experiments. After 24 hours, cells were labeled using 500 nM SNAP-Surface Alexa Fluor 647 for 10 min at room temperature. Cells were washed three times and then imaged in KRBH buffer containing 6 mM glucose and 0.1% BSA. Imaging was performed at 37°C by wide-field microscopy using the same microscope as in the “Assessment of surface GIPR expression by SNAP-tag labeling in cell lines” section, with 9 FOVs for both cADDis and SNAP-Surface fluorescence acquired from each well using a 10X, 0.45 NA air objective. […] Flat-field correction was performed using BaSiC ([72]), drift correction was performed using SIFT, and a maximum intensity projection of the cADDis channel was used to segment individual cells. cAMP responses were determined by quantifying the cADDis fluorescence intensity for each cell at each time point. Nonviable cells or noncell objects were excluded according to criteria for allowable cell IBMX/FSK responses. […] The cADDis mask was then used to quantify the SNAP-Surface signal from each cell. Wild-type SNAP-Surface readings were split into deciles, and these deciles were subsequently used to categorize variant-transfected cells to match against the wild type. After trimming the top and bottom deciles, the mean was taken of each decile mean for surface expression level or cAMP response, which achieved matched expression levels by effectively applying an inverse weighting to counteract differences in cell number in each decile for different variants. Ensemble expression levels or cAMP responses were calculated without regard to deciles. Variant cADDis responses were also analyzed within their own surface expression deciles.

[6] = tested on: wild-type and variant SNAP-GIPR; assay: Constitutive and agonist-mediated internalization, reversible SNAP-tag labelling, AD293 cells; set-up: key to Internalisation, Vehicle / Internalisation, +GIP / Internalisation, GIP-only: % internalization: residual fluorescence after Mesna vs pre-Mesna; Surface expression: unit not given here; details: Mean
Experimental: (§2) Twenty-four hours before the experiment, AD293 or INS-1 cells were reverse transfected with GIPR variant or wild-type plasmids using Lipofectamine 2000 in 96-well, clear-bottom, black microplates precoated with poly-D-lysine. All variants were tested in parallel on each occasion to control for transfection efficiency differences between experiments. […] Media were then removed, cells washed with PBS and then placed in TNE buffer (pH 8.6) for imaging. […] After 10 min, the well was reimaged again to detect remaining fluorescence from internalized GIPR. Images were analyzed as in the “Assessment of surface GIPR expression by SNAP-tag labeling in cell lines” section, with the residual specific fluorescence after Mesna treatment expressed relative to the pre-Mesna value to establish percentage internalization.

[7] = tested on: wild-type and variant SNAP-GIPR; assay: Constitutive and agonist-mediated internalization, reversible SNAP-tag labelling, INS-1 cells; set-up: key to Internalisation, GIP-only / Internalisation, Vehicle / Internalisation, +GIP: % internalization: residual fluorescence after Mesna vs pre-Mesna; details: Mean
Experimental: as §2

B1: T116R (protein, UniProt P48546 22-466, looked up, variant T116R)
Gastric inhibitory …: RAETGSKGQTAGELYQRWERYRRECQETLAAAEPPSGLACNGSFDMYVCWDYAAPNATARASCPWYLPWHHHVAAGFVLRQCGSDGQWGLWRDHRQCENPEKNEAFLDQRLILERLQVMYTVGYSLSLATLLLALLILSLFRRLHCTRNYIHINLFTSFMLRAAAILSRDRLLPRPGPYLGDQALALWNQALAACRTAQIVTQYCVGANYTWLLVEGVYLHSLLVLVGGSEEGHFRYYLLLGWGAPALFVIPWVIVRYLYENTQCWERNEVKAIWWIIRTPILMTILINFLIFIRILGILLSKLRTRQMRCRDYRLRLARSTLTLVPLLGVHEVVFAPVTEEQARGALRFAKLGFEIFLSSFQGFLVSVLYCFINKEVQSEIRRGWHHCRLRRSLGEEQRQLPERAFRALPSGSGPGEVPTSRGLSSGTLPGPGNEASRELESYC
AD293 Surface ([1]; column repeated, paired with cAMP 100 nM): 1.324 | AD293 Surface ([1]; paired with cAMP 100 pM): 1.324 | Surface SNAP-GIPR expression ([1]; replicate 1): 1.245 | Surface SNAP-GIPR expression ([1]; replicate 2): 1.023 | Surface SNAP-GIPR expression ([1]; replicate 3): 0.6735 | Surface SNAP-GIPR expression ([1]; replicate 4): 1.28 | Surface SNAP-GIPR expression ([1]; replicate 5): 0.9777 | Surface SNAP-GIPR expression ([1]; replicate 6): 1.324 | Surface SNAP-GIPR expression ([1]; replicate 7): 1.095 | Surface SNAP-GIPR expression ([1]; replicate 8): 1.165 | Surface SNAP-GIPR expression ([1]; replicate 9): 1.067 | Surface SNAP-GIPR expression ([1]; replicate 10): 1.216 | Surface SNAP-GIPR expression ([1]; replicate 11): 0.8978 | Surface SNAP-GIPR expression ([1]; replicate 12): 1.007 | Surface SNAP-GIPR expression ([1]; replicate 13): 1.293 | Surface SNAP-GIPR expression ([1]; replicate 14): 1.058 | Surface SNAP-GIPR expression ([1]; replicate 15): 1.321 | Surface SNAP-GIPR expression ([1]; replicate 16): 1.079 | Surface SNAP-GIPR expression ([1]; replicate 17): 1.526 | Surface SNAP-GIPR expression ([1]; replicate 18): 1.463 | Surface SNAP-GIPR expression ([1]; replicate 19): 1.041 | Surface SNAP-GIPR expression ([1]; replicate 20): 1.229 | Surface SNAP-GIPR expression ([1]; replicate 21): 1.037 | Surface SNAP-GIPR expression ([1]; replicate 22): 1.307 | Surface SNAP-GIPR expression ([1]; replicate 23): 1.273 | Surface SNAP-GIPR expression ([1]; replicate 24): 1.448 | Surface SNAP-GIPR expression ([1]; replicate 25): 1.438 | Surface SNAP-GIPR expression ([1]; replicate 26): 1.564 | Surface SNAP-GIPR expression ([1]; replicate 27): 1.467 | Surface SNAP-GIPR expression ([1]; replicate 28): 1.252 | Surface SNAP-GIPR expression ([1]; replicate 29): 1.566 | Surface SNAP-GIPR expression ([1]; replicate 30): 1.334 | Surface SNAP-GIPR expression ([1]; replicate 31): 1.686 | Surface SNAP-GIPR expression ([1]; replicate 32): 1.692 | Surface SNAP-GIPR expression ([1]; replicate 33): 1.307 | Surface SNAP-GIPR expression ([1]; replicate 34): 1.109 | Surface SNAP-GIPR expression ([1]; replicate 35): 1.705 | Surface SNAP-GIPR expression ([1]; replicate 36): 1.374 | Surface SNAP-GIPR expression ([1]; replicate 37): 1.911 | Surface SNAP-GIPR expression ([1]; replicate 38): 1.787 | Surface SNAP-GIPR expression ([1]; replicate 39): 1.944 | Surface SNAP-GIPR expression ([1]; replicate 40): 1.676 | Surface SNAP-GIPR expression ([1]; replicate 41): 1.421 | Surface expression [2]: 1.428 | AD293 100 pM HTRF ([3]; AD293, 100 pM): 0.9665 | AD293 100 nM HTRF ([3]; AD293, 100 nM): 1.485 | INS-1 cAMP (100 nM) [4]: 1.507 | AD293 100 pM cADDis ([5]; AD293, 100 pM): 33.6456 | AD293 100 nM cADDis ([5]; AD293, 100 nM): 38.18 | +GIP internalisation (100 nM) ([6]; Fig 4E, GIP 100 nM): 0.9677 | GIP-specific internalisation (100 nM) ([6]; Fig 4E, GIP 100 nM): 0.2939 | Constitutive internalisation (100 nM) ([6]; Fig 4E): 0.6738 | Surface expression ([6]; Fig 4E): 1.687 | Internalisation, +GIP ([6]; Fig S4C, AD293): 57.3525 | Internalisation, GIP-only ([6]; Fig S4C, AD293): 17.4551 | Internalisation, Vehicle ([6]; Fig S4C, AD293): 39.8973 | +GIP internalisation (100 nM) ([7]; Fig 4G, GIP 100 nM): 0.7228 | GIP-specific internalisation (100 nM) ([7]; Fig 4G, GIP 100 nM): 0.1652 | Constitutive internalisation (100 nM) ([7]; Fig 4G): 0.5577 | Internalisation, +GIP ([7]; Fig S4C, INS-1): 48.6183 | Internalisation, GIP-only ([7]; Fig S4C, INS-1): 11.125 | Internalisation, Vehicle ([7]; Fig S4C, INS-1): 37.4933
